# T1: Cre recombinase monomer with Q311R mutation
# T1 chain: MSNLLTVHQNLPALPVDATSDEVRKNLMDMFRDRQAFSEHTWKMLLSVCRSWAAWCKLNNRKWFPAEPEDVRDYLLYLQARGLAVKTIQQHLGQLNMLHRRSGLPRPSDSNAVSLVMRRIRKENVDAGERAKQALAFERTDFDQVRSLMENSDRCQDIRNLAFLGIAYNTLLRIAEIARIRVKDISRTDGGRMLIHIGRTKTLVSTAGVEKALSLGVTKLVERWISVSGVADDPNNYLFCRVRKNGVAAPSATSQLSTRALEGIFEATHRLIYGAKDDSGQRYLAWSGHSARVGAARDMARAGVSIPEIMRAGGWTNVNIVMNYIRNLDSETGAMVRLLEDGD
# Target: T1, Cre recombinase monomer with Q311R …
row,Protein,Median dimer activity (recombination on loxP) [%]
1,Cre recombinase monomer with R292F mutation (protein) MSNLLTVHQNLPALPVDATSDEVRKNLMDMFRDRQAFSEHTWKMLLSVCRSWAAWCKLNNRKWFPAEPEDVRDYLLYLQARGLAVKTIQQHLGQLNMLHRRSGLPRPSDSNAVSLVMRRIRKENVDAGERAKQALAFERTDFDQVRSLMENSDRCQDIRNLAFLGIAYNTLLRIAEIARIRVKDISRTDGGRMLIHIGRTKTLVSTAGVEKALSLGVTKLVERWISVSGVADDPNNYLFCRVRKNGVAAPSATSQLSTRALEGIFEATHRLIYGAKDDSGQRYLAWSGHSAFVGAARDMARAGVSIPEIMQAGGWTNVNIVMNYIRNLDSETGAMVRLLEDGD,42
2,Cre recombinase monomer with R292H mutation (protein) MSNLLTVHQNLPALPVDATSDEVRKNLMDMFRDRQAFSEHTWKMLLSVCRSWAAWCKLNNRKWFPAEPEDVRDYLLYLQARGLAVKTIQQHLGQLNMLHRRSGLPRPSDSNAVSLVMRRIRKENVDAGERAKQALAFERTDFDQVRSLMENSDRCQDIRNLAFLGIAYNTLLRIAEIARIRVKDISRTDGGRMLIHIGRTKTLVSTAGVEKALSLGVTKLVERWISVSGVADDPNNYLFCRVRKNGVAAPSATSQLSTRALEGIFEATHRLIYGAKDDSGQRYLAWSGHSAHVGAARDMARAGVSIPEIMQAGGWTNVNIVMNYIRNLDSETGAMVRLLEDGD,88
3,Cre recombinase monomer with R292I mutation (protein) MSNLLTVHQNLPALPVDATSDEVRKNLMDMFRDRQAFSEHTWKMLLSVCRSWAAWCKLNNRKWFPAEPEDVRDYLLYLQARGLAVKTIQQHLGQLNMLHRRSGLPRPSDSNAVSLVMRRIRKENVDAGERAKQALAFERTDFDQVRSLMENSDRCQDIRNLAFLGIAYNTLLRIAEIARIRVKDISRTDGGRMLIHIGRTKTLVSTAGVEKALSLGVTKLVERWISVSGVADDPNNYLFCRVRKNGVAAPSATSQLSTRALEGIFEATHRLIYGAKDDSGQRYLAWSGHSAIVGAARDMARAGVSIPEIMQAGGWTNVNIVMNYIRNLDSETGAMVRLLEDGD,97
4,Cre recombinase monomer with R292S mutation (protein) MSNLLTVHQNLPALPVDATSDEVRKNLMDMFRDRQAFSEHTWKMLLSVCRSWAAWCKLNNRKWFPAEPEDVRDYLLYLQARGLAVKTIQQHLGQLNMLHRRSGLPRPSDSNAVSLVMRRIRKENVDAGERAKQALAFERTDFDQVRSLMENSDRCQDIRNLAFLGIAYNTLLRIAEIARIRVKDISRTDGGRMLIHIGRTKTLVSTAGVEKALSLGVTKLVERWISVSGVADDPNNYLFCRVRKNGVAAPSATSQLSTRALEGIFEATHRLIYGAKDDSGQRYLAWSGHSASVGAARDMARAGVSIPEIMQAGGWTNVNIVMNYIRNLDSETGAMVRLLEDGD,97
5,Cre recombinase monomer with R292P mutation (protein) MSNLLTVHQNLPALPVDATSDEVRKNLMDMFRDRQAFSEHTWKMLLSVCRSWAAWCKLNNRKWFPAEPEDVRDYLLYLQARGLAVKTIQQHLGQLNMLHRRSGLPRPSDSNAVSLVMRRIRKENVDAGERAKQALAFERTDFDQVRSLMENSDRCQDIRNLAFLGIAYNTLLRIAEIARIRVKDISRTDGGRMLIHIGRTKTLVSTAGVEKALSLGVTKLVERWISVSGVADDPNNYLFCRVRKNGVAAPSATSQLSTRALEGIFEATHRLIYGAKDDSGQRYLAWSGHSAPVGAARDMARAGVSIPEIMQAGGWTNVNIVMNYIRNLDSETGAMVRLLEDGD,76
6,Cre recombinase monomer with R292Q mutation (protein) MSNLLTVHQNLPALPVDATSDEVRKNLMDMFRDRQAFSEHTWKMLLSVCRSWAAWCKLNNRKWFPAEPEDVRDYLLYLQARGLAVKTIQQHLGQLNMLHRRSGLPRPSDSNAVSLVMRRIRKENVDAGERAKQALAFERTDFDQVRSLMENSDRCQDIRNLAFLGIAYNTLLRIAEIARIRVKDISRTDGGRMLIHIGRTKTLVSTAGVEKALSLGVTKLVERWISVSGVADDPNNYLFCRVRKNGVAAPSATSQLSTRALEGIFEATHRLIYGAKDDSGQRYLAWSGHSAQVGAARDMARAGVSIPEIMQAGGWTNVNIVMNYIRNLDSETGAMVRLLEDGD,70
7,Cre recombinase monomer with R292G mutation (protein) MSNLLTVHQNLPALPVDATSDEVRKNLMDMFRDRQAFSEHTWKMLLSVCRSWAAWCKLNNRKWFPAEPEDVRDYLLYLQARGLAVKTIQQHLGQLNMLHRRSGLPRPSDSNAVSLVMRRIRKENVDAGERAKQALAFERTDFDQVRSLMENSDRCQDIRNLAFLGIAYNTLLRIAEIARIRVKDISRTDGGRMLIHIGRTKTLVSTAGVEKALSLGVTKLVERWISVSGVADDPNNYLFCRVRKNGVAAPSATSQLSTRALEGIFEATHRLIYGAKDDSGQRYLAWSGHSAGVGAARDMARAGVSIPEIMQAGGWTNVNIVMNYIRNLDSETGAMVRLLEDGD,97
8,Cre recombinase monomer with E176L mutation (protein) MSNLLTVHQNLPALPVDATSDEVRKNLMDMFRDRQAFSEHTWKMLLSVCRSWAAWCKLNNRKWFPAEPEDVRDYLLYLQARGLAVKTIQQHLGQLNMLHRRSGLPRPSDSNAVSLVMRRIRKENVDAGERAKQALAFERTDFDQVRSLMENSDRCQDIRNLAFLGIAYNTLLRIALIARIRVKDISRTDGGRMLIHIGRTKTLVSTAGVEKALSLGVTKLVERWISVSGVADDPNNYLFCRVRKNGVAAPSATSQLSTRALEGIFEATHRLIYGAKDDSGQRYLAWSGHSARVGAARDMARAGVSIPEIMQAGGWTNVNIVMNYIRNLDSETGAMVRLLEDGD,40
9,Cre recombinase monomer with R292N mutation (protein) MSNLLTVHQNLPALPVDATSDEVRKNLMDMFRDRQAFSEHTWKMLLSVCRSWAAWCKLNNRKWFPAEPEDVRDYLLYLQARGLAVKTIQQHLGQLNMLHRRSGLPRPSDSNAVSLVMRRIRKENVDAGERAKQALAFERTDFDQVRSLMENSDRCQDIRNLAFLGIAYNTLLRIAEIARIRVKDISRTDGGRMLIHIGRTKTLVSTAGVEKALSLGVTKLVERWISVSGVADDPNNYLFCRVRKNGVAAPSATSQLSTRALEGIFEATHRLIYGAKDDSGQRYLAWSGHSANVGAARDMARAGVSIPEIMQAGGWTNVNIVMNYIRNLDSETGAMVRLLEDGD,95
10,Cre recombinase monomer with R173K mutation (protein) MSNLLTVHQNLPALPVDATSDEVRKNLMDMFRDRQAFSEHTWKMLLSVCRSWAAWCKLNNRKWFPAEPEDVRDYLLYLQARGLAVKTIQQHLGQLNMLHRRSGLPRPSDSNAVSLVMRRIRKENVDAGERAKQALAFERTDFDQVRSLMENSDRCQDIRNLAFLGIAYNTLLKIAEIARIRVKDISRTDGGRMLIHIGRTKTLVSTAGVEKALSLGVTKLVERWISVSGVADDPNNYLFCRVRKNGVAAPSATSQLSTRALEGIFEATHRLIYGAKDDSGQRYLAWSGHSARVGAARDMARAGVSIPEIMQAGGWTNVNIVMNYIRNLDSETGAMVRLLEDGD,84
11,Cre recombinase monomer with R292L mutation (protein) MSNLLTVHQNLPALPVDATSDEVRKNLMDMFRDRQAFSEHTWKMLLSVCRSWAAWCKLNNRKWFPAEPEDVRDYLLYLQARGLAVKTIQQHLGQLNMLHRRSGLPRPSDSNAVSLVMRRIRKENVDAGERAKQALAFERTDFDQVRSLMENSDRCQDIRNLAFLGIAYNTLLRIAEIARIRVKDISRTDGGRMLIHIGRTKTLVSTAGVEKALSLGVTKLVERWISVSGVADDPNNYLFCRVRKNGVAAPSATSQLSTRALEGIFEATHRLIYGAKDDSGQRYLAWSGHSALVGAARDMARAGVSIPEIMQAGGWTNVNIVMNYIRNLDSETGAMVRLLEDGD,93
12,Cre recombinase monomer with R173A mutation (protein) MSNLLTVHQNLPALPVDATSDEVRKNLMDMFRDRQAFSEHTWKMLLSVCRSWAAWCKLNNRKWFPAEPEDVRDYLLYLQARGLAVKTIQQHLGQLNMLHRRSGLPRPSDSNAVSLVMRRIRKENVDAGERAKQALAFERTDFDQVRSLMENSDRCQDIRNLAFLGIAYNTLLAIAEIARIRVKDISRTDGGRMLIHIGRTKTLVSTAGVEKALSLGVTKLVERWISVSGVADDPNNYLFCRVRKNGVAAPSATSQLSTRALEGIFEATHRLIYGAKDDSGQRYLAWSGHSARVGAARDMARAGVSIPEIMQAGGWTNVNIVMNYIRNLDSETGAMVRLLEDGD,93
13,Cre recombinase monomer with R292V mutation (protein) MSNLLTVHQNLPALPVDATSDEVRKNLMDMFRDRQAFSEHTWKMLLSVCRSWAAWCKLNNRKWFPAEPEDVRDYLLYLQARGLAVKTIQQHLGQLNMLHRRSGLPRPSDSNAVSLVMRRIRKENVDAGERAKQALAFERTDFDQVRSLMENSDRCQDIRNLAFLGIAYNTLLRIAEIARIRVKDISRTDGGRMLIHIGRTKTLVSTAGVEKALSLGVTKLVERWISVSGVADDPNNYLFCRVRKNGVAAPSATSQLSTRALEGIFEATHRLIYGAKDDSGQRYLAWSGHSAVVGAARDMARAGVSIPEIMQAGGWTNVNIVMNYIRNLDSETGAMVRLLEDGD,95
14,Cre recombinase monomer with R292W mutation (protein) MSNLLTVHQNLPALPVDATSDEVRKNLMDMFRDRQAFSEHTWKMLLSVCRSWAAWCKLNNRKWFPAEPEDVRDYLLYLQARGLAVKTIQQHLGQLNMLHRRSGLPRPSDSNAVSLVMRRIRKENVDAGERAKQALAFERTDFDQVRSLMENSDRCQDIRNLAFLGIAYNTLLRIAEIARIRVKDISRTDGGRMLIHIGRTKTLVSTAGVEKALSLGVTKLVERWISVSGVADDPNNYLFCRVRKNGVAAPSATSQLSTRALEGIFEATHRLIYGAKDDSGQRYLAWSGHSAWVGAARDMARAGVSIPEIMQAGGWTNVNIVMNYIRNLDSETGAMVRLLEDGD,88

# Reference: patent US20230183713A1, “SITE-SPECIFIC RECOMBINASES FOR EFFICIENT AND SPECIFIC GENOME EDITING” (TECHNISCHE UNIVERSITÄt DRESDEN, published 2023)
